# Assay results reported in paper PMC11551737, “Structural and functional insights into the interaction between the bacteriophage T4 DNA processing proteins gp32 and Dda” (Nucleic Acids Research, 2024).
# “Also recorded” adds a separate entry of the source.
# T1: gp32 His-tagged;Dda-K38A (bacteriophage T4;bacteriophage T4, UniProt P03695;P32270 1-301;1-439, |K38A)
# T1 sequence 1: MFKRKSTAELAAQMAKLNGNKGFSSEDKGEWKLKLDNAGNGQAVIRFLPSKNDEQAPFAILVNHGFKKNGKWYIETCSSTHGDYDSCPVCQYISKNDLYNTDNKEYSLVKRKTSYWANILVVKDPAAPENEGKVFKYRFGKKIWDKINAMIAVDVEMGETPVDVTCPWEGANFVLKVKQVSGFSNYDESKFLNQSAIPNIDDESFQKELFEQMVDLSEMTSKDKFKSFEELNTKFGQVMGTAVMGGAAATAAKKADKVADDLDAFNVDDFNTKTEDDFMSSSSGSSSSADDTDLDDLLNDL
# T1 sequence 2: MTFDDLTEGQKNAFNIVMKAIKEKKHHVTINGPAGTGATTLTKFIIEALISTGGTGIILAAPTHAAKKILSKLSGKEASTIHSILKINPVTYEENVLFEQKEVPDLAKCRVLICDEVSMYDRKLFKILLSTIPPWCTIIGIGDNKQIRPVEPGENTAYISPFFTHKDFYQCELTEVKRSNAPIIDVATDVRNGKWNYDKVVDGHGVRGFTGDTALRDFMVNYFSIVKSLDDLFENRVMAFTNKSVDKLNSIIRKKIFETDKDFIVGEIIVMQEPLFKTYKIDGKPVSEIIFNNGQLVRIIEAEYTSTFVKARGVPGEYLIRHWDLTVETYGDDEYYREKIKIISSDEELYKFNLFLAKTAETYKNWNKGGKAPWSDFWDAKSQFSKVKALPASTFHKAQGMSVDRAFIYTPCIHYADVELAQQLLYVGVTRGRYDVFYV
# T2: gp32 C-terminal peptide 248-270;Dda-K38A (bacteriophage T4;bacteriophage T4, UniProt P03695;P32270 248-270;1-439, |K38A)
# T2 sequence 1: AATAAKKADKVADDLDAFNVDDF
# T2 sequence 2: T1 sequence 2
# T3: gp32 non-His-tagged;Dda-K38A (bacteriophage T4;bacteriophage T4, UniProt P03695;P32270 1-301;1-439, |K38A)
# T3 sequence 1: T1 sequence 1
# T3 sequence 2: T1 sequence 2
# B1: dT18 (ssDNA)
# DNA: TTTTTTTTTTTTTTTTTT
# B2: dT8 (ssDNA)
# DNA: TTTTTTTT
# B3: wild-type gp32: bacteriophage T4 single-stranded DNA-binding protein, full length, N-terminal 6xHis-tag (protein)
# chain: T1 sequence 1
# modifications: left off: 6xHis, N-terminal, kept
# B4: dT16 (ssDNA)
# DNA: TTTTTTTTTTTTTTTT
# B5: dT17 (ssDNA)
# DNA: TTTTTTTTTTTTTTTTT
# B6: dT20 (ssDNA)
# DNA: TTTTTTTTTTTTTTTTTTTT
# Columns and labels:
# Dda-K38A/dT20 = molecular target: T4, Dda-K38A/dT20 (Enterobacteria phage T4, UniProt P32270, K38A); format: binding, bacteriophage T4; conditions: SPR analysis 1, peptides up to 100 μM, 25°C
# T4 construct: made in house
# Protocol: These experiments were conducted at 25°C using a Biacore 3000 optical biosensor (Cytiva). […] The chip was primed in chelating buffer (10 mM HEPES pH 7.4, 150 mM NaCl, 50 μM EDTA, 0.005% Tween20) and was preconditioned at 10 μl/min with three 60 s injections of wash buffer (10 mM HEPES pH 8.3, 150 mM NaCl, 350 mM EDTA, 0.05% Tween20) and one 60 s injection of chelating buffer before being charged with a 60 s injection of 500 μM NiCl2 in chelating buffer. […] Any remaining active sites were blocked by Tris molecules in the binding analysis buffer (20 mM Tris-acetate pH 8.0, 150 mM NaCl, 10 mM magnesium acetate, 3 mM potassium glutamate, 1 mM TCEP, 0.05% Tween20, 10% glycerol). One flow cell on the chip was charged with Ni^2+ and activated with EDC/NHS without adding protein to be used as a reference cell. gp32 C-terminal peptides were prepared in binding analysis buffer as a 4-fold dilution series at maximum concentration 100 μM for screening and were injected at a flow rate of 75 μl/min. […] The data were processed, double-referenced and analyzed using the software package Scrubber2 (version 2.0c, BioLogic Software). The equilibrium dissociation constants (KD) were determined using steady-state analysis, specifically an equilibrium affinity analysis to fit the data to a 1:1 (Langmuir) interaction model.
# wild-type Dda/dT20 = molecular target: T5, wild-type Dda/dT20 (Enterobacteria phage T4, UniProt P32270); format: binding, bacteriophage T4; conditions: SPR, Biacore T200, 25°C; wild-type Dda/dT20 on NTA chip; average of three experiments
# T5 construct: His-tag; made in house
# T5 sequence (P32270 whole entry): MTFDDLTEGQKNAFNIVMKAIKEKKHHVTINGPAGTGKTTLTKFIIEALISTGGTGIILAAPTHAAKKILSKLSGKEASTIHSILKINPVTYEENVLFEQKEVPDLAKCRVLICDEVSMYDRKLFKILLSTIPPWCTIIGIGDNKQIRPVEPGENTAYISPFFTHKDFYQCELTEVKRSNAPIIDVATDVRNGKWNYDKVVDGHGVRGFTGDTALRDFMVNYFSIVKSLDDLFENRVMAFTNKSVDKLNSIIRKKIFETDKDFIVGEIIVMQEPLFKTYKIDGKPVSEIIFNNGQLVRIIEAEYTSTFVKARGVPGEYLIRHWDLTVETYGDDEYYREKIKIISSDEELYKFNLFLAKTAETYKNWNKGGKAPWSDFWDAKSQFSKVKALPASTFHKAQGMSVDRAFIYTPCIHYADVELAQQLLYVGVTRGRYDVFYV
# Protocol: These experiments were conducted at 25°C using a Biacore 3000 optical biosensor (Cytiva). […] The chip was primed in chelating buffer (10 mM HEPES pH 7.4, 150 mM NaCl, 50 μM EDTA, 0.005% Tween20) and was preconditioned at 10 μl/min with three 60 s injections of wash buffer (10 mM HEPES pH 8.3, 150 mM NaCl, 350 mM EDTA, 0.05% Tween20) and one 60 s injection of chelating buffer before being charged with a 60 s injection of 500 μM NiCl2 in chelating buffer. […] Any remaining active sites were blocked by Tris molecules in the binding analysis buffer (20 mM Tris-acetate pH 8.0, 150 mM NaCl, 10 mM magnesium acetate, 3 mM potassium glutamate, 1 mM TCEP, 0.05% Tween20, 10% glycerol). […] The data were processed, double-referenced and analyzed using the software package Scrubber2 (version 2.0c, BioLogic Software). The equilibrium dissociation constants (KD) were determined using steady-state analysis, specifically an equilibrium affinity analysis to fit the data to a 1:1 (Langmuir) interaction model.
# These experiments were conducted at 25°C using a Biacore T200 optical biosensor (Cytiva) and NTA chip sensor S series; Cytiva. […] Also, the data were analyzed using the Biacore T200 Evaluation software package (version 3.1).
# [1] = molecular target: bacteriophage T4 gp32 single-stranded DNA-binding protein, full length, His-tagged (bacteriophage T4) (UniProt P03695); experiment: AUC; sedimentation velocity, 20°C, 42 000 rpm; 20 mM Tris pH 7.0, 200 mM NaCl, 0.5 mM EDTA, 5 mM β-mercaptoethanol; gp32 at 11.10 μM
# gp32 His-tagged;Dda-K38A [2] = molecular target: T1, gp32 His-tagged;Dda-K38A; experiment: gel filtration; 50 mM NaCl; purified complex crystallized; EMSA: 25 mM HEPES pH 7.5, 5 mM MgCl2, 0.1 mM EDTA, 2 mM 2-mercaptoethanol, 1 mg/ml BSA, 5% glycerol, 10 or 150 mM NaCl, room temperature (gel 4 C); gel filtration: 20 mM Tris-HCl pH 7.0, 200 mM NaCl (50 mM for crystallization), 0.5 mM EDTA, 5 mM 2-mercaptoethanol; conditions: protein: recombinant;recombinant; tags: N-terminal 6xHis;6xHis (stated for SPR); copies: 1;1; single strand
# [3] = molecular target: T2, gp32 C-terminal peptide 248-270;Dda-K38A; experiment: crystal structure; 3.53 A; peptide contacts Dda; EMSA: 25 mM HEPES pH 7.5, 5 mM MgCl2, 0.1 mM EDTA, 2 mM 2-mercaptoethanol, 1 mg/ml BSA, 5% glycerol, 10 or 150 mM NaCl, room temperature (gel 4 C); gel filtration: 20 mM Tris-HCl pH 7.0, 200 mM NaCl (50 mM for crystallization), 0.5 mM EDTA, 5 mM 2-mercaptoethanol; conditions: tags: ;6xHis (stated for SPR); copies: 1;1; single strand
# [4] = system: Dda binding to ssDNA (5′F-T30); experiment: Electrophoretic mobility shift assay of Dda binding to 5′F-T30 ssDNA with or without gp32; parameters: species or system bacteriophage T4; conditions: EMSA, 5 nM 5′F-T30, 100 nM gp32, 10 mM or 150 mM NaCl, 10 min room temperature; three independent sets, Hill fit
# Protocol: Varying amounts of Dda were mixed with 5 nM 5′F-T30 with or without 100 nM gp32 in 25 mM HEPES, pH 7.5, 5 mM MgCl2, 0.1 mM EDTA, 2 mM β-mercaptoethanol, 1 mg/ml bovine serum albumin, 5% glycerol, 0.05% Orange G and either 10 mM NaCl or 150 mM NaCl. Samples were incubated at room temperature in the dark for 10 min before separating on a 6% 100:1 acrylamide:bisacrylamide gel at 4°C. Gels were imaged on an Amersham Typhoon RGB Imager (Cytiva) with excitation using a 488 nm laser and emission measured after a 525BP20 filter. Data were quantified using ImageQuant software (GE Healthcare) and fit to the Hill equation.
# Figure S6. gp32 enhances the affinity of Dda for ssDNA. (A) Electrophoretic mobility shift assays (EMSAs) of 5 nM 5′-F-T30 with increasing concentrations of Dda at 10 mM NaCl and 150 mM NaCl. (B) EMSAs of 5 nM 5′-F-T30 with 100 nM gp32 and increasing concentrations of Dda at 10 mM NaCl and 150 mM NaCl. ( C) The fraction of Dda bound DNA from three independent sets of EMSAs is plotted (average and standard deviation) and fit to the Hill equation. (D) The average and standard deviation of the apparent K d for each condition are given.
# (1 picture or pasted object on this page, not shown here)
# wild-type Dda = experiment: Dda-dependent DNA unwinding assay with gp32 variants (fluorescein-quenched replication fork substrate, no annealing trap); format: biochemical, bacteriophage T4; conditions: 375 nM gp32 variant, 25 nM wild-type Dda, 25 nM substrate, 2.5 mM ATP, triplicate experiments
# Protocol: A partial duplex substrate mimicking a replication fork was prepared by mixing equimolar concentrations of the following oligonucleotides: loading strand - […]/36-FAM/, displaced strand - […], and leading strand - […] in 10 mM HEPES/1 mM EDTA. The sample was heated to 95°C for 5 min, followed by slowly cooling to room temperature. All concentrations are final, after mixing. ATP (2.5 mM), Mg(OAc)2 (5 mM) and gp32 (375 nM) in assay buffer (25 mM HEPES, pH 7.5, 10 mM KOAc, 0.1 mM EDTA, 2 mM β-mercaptoethanol, 1 mg/ml bovine serum albumin and 4 mM phosphoenol pyruvate) were mixed and added to wells in one row of a black 96-well plate. The reactions were initiated by adding 25 nM substrate, 25 nM wild-type Dda and 5 U/ml pyruvate kinase/lactate dehydrogenase in assay buffer with a multichannel pipette to the entire row simultaneously. Fluorescein fluorescence was measured 8 times per minute in a VICTOR Nivo Multimode Plate Reader (Perkin Elmer) at room temperature with excitation through a 480/30 nm bandpass filter and emission measured after a 530/30 nm bandpass filter.
# gp32 His-tagged;Dda-K38A [5] = molecular target: T1, gp32 His-tagged;Dda-K38A; experiment: gel filtration; complex stably formed; EMSA: 25 mM HEPES pH 7.5, 5 mM MgCl2, 0.1 mM EDTA, 2 mM 2-mercaptoethanol, 1 mg/ml BSA, 5% glycerol, 10 or 150 mM NaCl, room temperature (gel 4 C); gel filtration: 20 mM Tris-HCl pH 7.0, 200 mM NaCl (50 mM for crystallization), 0.5 mM EDTA, 5 mM 2-mercaptoethanol; conditions: protein: recombinant;recombinant; tags: N-terminal 6xHis;6xHis (stated for SPR); copies: 1;1; single strand
# [6] = molecular target: T3, gp32 non-His-tagged;Dda-K38A; experiment: crystal structure; Zn2+; 4.98 A; 11 nt visible in one complex, 9 nt (Dda only) in the other; EMSA: 25 mM HEPES pH 7.5, 5 mM MgCl2, 0.1 mM EDTA, 2 mM 2-mercaptoethanol, 1 mg/ml BSA, 5% glycerol, 10 or 150 mM NaCl, room temperature (gel 4 C); gel filtration: 20 mM Tris-HCl pH 7.0, 200 mM NaCl (50 mM for crystallization), 0.5 mM EDTA, 5 mM 2-mercaptoethanol; conditions: protein: recombinant;recombinant; tags: none;6xHis (stated for SPR); copies: 1;1; single strand
# gp32 His-tagged;Dda-K38A [7] = molecular target: T1, gp32 His-tagged;Dda-K38A; experiment: crystal structure; Zn2+; 6 A crystals, Zn SAD; EMSA: 25 mM HEPES pH 7.5, 5 mM MgCl2, 0.1 mM EDTA, 2 mM 2-mercaptoethanol, 1 mg/ml BSA, 5% glycerol, 10 or 150 mM NaCl, room temperature (gel 4 C); gel filtration: 20 mM Tris-HCl pH 7.0, 200 mM NaCl (50 mM for crystallization), 0.5 mM EDTA, 5 mM 2-mercaptoethanol; conditions: protein: recombinant;recombinant; tags: N-terminal 6xHis;6xHis (stated for SPR); copies: 1;1; single strand
# gp32 His-tagged;Dda-K38A [8] = molecular target: T1, gp32 His-tagged;Dda-K38A; experiment: gel filtration, SDS-PAGE and agarose gel; 200 mM NaCl; EMSA: 25 mM HEPES pH 7.5, 5 mM MgCl2, 0.1 mM EDTA, 2 mM 2-mercaptoethanol, 1 mg/ml BSA, 5% glycerol, 10 or 150 mM NaCl, room temperature (gel 4 C); gel filtration: 20 mM Tris-HCl pH 7.0, 200 mM NaCl (50 mM for crystallization), 0.5 mM EDTA, 5 mM 2-mercaptoethanol; conditions: protein: recombinant;recombinant; tags: N-terminal 6xHis;6xHis (stated for SPR); copies: 1;1; single strand
molecule,measurement,setting,value
240–253: synthetic peptide of gp32 C-terminus residues 240–253 (GTAVMGGAAATAAK),Binding to Dda-K38A/dT20 (in words),Dda-K38A/dT20,failed to bind; also recorded: showed no binding
AATAAKKEDKVADDADAFNVDDF [A255E/L262A],Rmax,wild-type Dda/dT20,196 (+/- 12.6) RU
AATAAKKADKEADDLDAANVDDF [V258E/F265A],Rmax,wild-type Dda/dT20,115 (+/- 5.88) RU
"bacteriophage T4 gp32 single-stranded DNA-binding protein, full length, His-tagged (from UniProt P03695 1-301) (natural protein)",stoichiometry N,[1],2
B1,binding result,gp32 His-tagged;Dda-K38A [2],binds
B2,binding result,[3],binds
B3,Effect of gp32 on Dda binding to ssDNA (in words),[4],increases the affinity of Dda for the ssDNA; also recorded: reduces the fraction of ssDNA bound by Dda
same,Rate constant of product formation (single exponential fit),"wild-type Dda; 5 mM Mg(OAc)2, pH 7.5, room temperature, fluorescein fluorescence",0.023 s⁻¹
same,Amplitude of the product formation curve (fluorescence),wild-type Dda; higher amplitude = more effective prevention of reannealing,280 000
B4,binding result,gp32 His-tagged;Dda-K38A [5],binds
B5,binding result,[6],binds
same,binding result,gp32 His-tagged;Dda-K38A [7],binds
B6,binding result,gp32 His-tagged;Dda-K38A [8],binds
